How the values were obtained:
PKR (full length) = PKR (full length) (human, UniProt P19525 1-551); experiment: EMSA; 5 mM Mg2+; Kd only in figure inset; […], room temperature 10 min, […]; SEC: 50 mM Tris pH 7.5, 100 mM NaCl, 5 mM MgCl2; conditions: protein: recombinant; three-way junction RNA, apical and central stem-loops
PKR1-169 (tandem dsRBMs) = PKR1-169 (tandem dsRBMs) (human, UniProt P19525 1-169); experiment: SEC co-elution, native PAGE; 5 mM Mg2+; 1.1-fold excess RNA; complex also studied by SAXS; […], room temperature 10 min, […]; SEC: 50 mM Tris pH 7.5, 100 mM NaCl, 5 mM MgCl2; conditions: protein: recombinant; three-way junction RNA, apical and central stem-loops
Chain of PKR1-169 (tandem dsRBMs) (P19525 1-169): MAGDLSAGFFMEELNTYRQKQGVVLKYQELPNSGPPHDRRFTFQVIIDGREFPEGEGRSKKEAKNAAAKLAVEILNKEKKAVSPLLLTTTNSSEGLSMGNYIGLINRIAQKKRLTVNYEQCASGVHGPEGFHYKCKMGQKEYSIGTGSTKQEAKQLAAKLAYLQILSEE

Chain of PKR (full length) (P19525 whole entry): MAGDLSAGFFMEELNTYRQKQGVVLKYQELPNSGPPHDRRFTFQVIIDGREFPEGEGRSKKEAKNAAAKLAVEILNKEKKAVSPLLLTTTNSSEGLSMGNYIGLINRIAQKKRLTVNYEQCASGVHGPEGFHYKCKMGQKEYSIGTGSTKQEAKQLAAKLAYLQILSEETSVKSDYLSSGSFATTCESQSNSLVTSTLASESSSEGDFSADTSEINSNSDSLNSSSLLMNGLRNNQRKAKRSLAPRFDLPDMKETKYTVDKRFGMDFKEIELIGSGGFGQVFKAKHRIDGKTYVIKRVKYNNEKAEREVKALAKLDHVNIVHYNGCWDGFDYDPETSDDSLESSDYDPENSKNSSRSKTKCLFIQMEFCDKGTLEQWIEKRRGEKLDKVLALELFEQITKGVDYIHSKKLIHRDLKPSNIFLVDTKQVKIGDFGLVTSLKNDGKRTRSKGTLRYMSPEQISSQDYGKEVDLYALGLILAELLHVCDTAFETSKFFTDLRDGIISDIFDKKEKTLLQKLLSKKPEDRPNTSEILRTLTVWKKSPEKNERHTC

B1: VAI dTS (wt RNA) (structured_RNA)
RNA: GGCAAGGGUAUCAUGGCGGACGACCGGGGUUCGAACCCCGGAUCCGGCCGUCCGCCGUGAUCCAUGCGGUUACCGCCCGCGUGUCGAACCCAGGUGUGCC
binding result (PKR (full length)): binds
binding result (PKR1-169 (tandem dsRBMs)): binds

Reference: article PMC5650172, “Impact of the structural integrity of the three-way junction of adenovirus VAI RNA on PKR inhibition”
